This is an account of results in patent US20250312473A1 (BEONE MEDICINES I, published 2025).

Assay [1] deals with T1, ECD of human 4Ig-B7H3 (Sinobiological, Cat: 11188-H08H) (human).
T1 construct: Bought protein; also called human 4Ig-B7H3 ECD
The experiment in a line: SPR, antibody captured on anti-human Fc surface, Test 1. From the text: (§1) For affinity determination, antibodies were captured by anti-human Fc surface, and used in an affinity assay based on surface plasmon resonance (SPR) technology.
On the technique in general: Surface plasmon resonance follows binding to a sensor surface in real time, without labels.

The target in assay [2] is T2, human 4Ig-B7H3 over-expressed on NK92mi cells (human, UniProt Q5ZPR3 29-534).
T2 construct: Full-length protein on live engineered NK92mi cells; also called NK92mi/B7H3; native B7H3
T2 sequence: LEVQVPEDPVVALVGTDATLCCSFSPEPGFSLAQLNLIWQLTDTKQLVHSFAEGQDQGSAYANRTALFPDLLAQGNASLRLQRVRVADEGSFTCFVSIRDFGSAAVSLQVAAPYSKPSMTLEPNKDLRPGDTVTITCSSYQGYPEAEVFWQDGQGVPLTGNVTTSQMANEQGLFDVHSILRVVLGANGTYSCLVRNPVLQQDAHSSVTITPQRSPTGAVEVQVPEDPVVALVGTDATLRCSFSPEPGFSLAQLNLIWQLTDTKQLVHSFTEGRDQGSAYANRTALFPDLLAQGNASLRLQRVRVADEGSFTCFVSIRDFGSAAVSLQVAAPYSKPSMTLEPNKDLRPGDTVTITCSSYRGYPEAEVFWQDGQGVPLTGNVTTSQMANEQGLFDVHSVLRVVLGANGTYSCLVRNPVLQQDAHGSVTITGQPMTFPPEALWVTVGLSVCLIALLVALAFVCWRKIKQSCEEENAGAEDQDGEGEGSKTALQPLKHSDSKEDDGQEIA
The experiment in a line: FACS on live NK92mi/B7H3 cells, goat anti-human IgG detection, Test2. The procedure:
(§2) To evaluate the binding activity of humanized antibodies to bind native B7H3 on live cells, NK92mi cells were engineered to over-express human 4Ig-B7H3. Live NK92mi/B7H3 cells were seeded in 96-well plates and were incubated with a series of dilutions of chimeric or humanized antibodies. Goat anti-human IgG was used as second antibody to detect antibody binding to the cell surface. EC₅₀ values for dose-dependent binding to human native B7H3 were determined by fitting the dose-response data to the four-parameter logistic model with GraphPad Prism.

Assay [3] has as its target T1, ECD of human 4Ig-B7H3 (Sinobiological, …). The experiment in a line: SPR, antibody captured on anti-human Fc surface, Test 2.
Text: as §1

In assay [4] the target is T2, human 4Ig-B7H3 over-expressed on NK92mi …. The experiment in a line: FACS on live NK92mi/B7H3 cells, goat anti-human IgG detection, Test1. The procedure: as §2

B1: BGA-4348 (antibody, human IgG1, V domains shown)
VH: QIQLVQSGAEVKKPGSSVKVSCKASGYTFTNYDINWVRQAPGQGLEWMGWIYPGDGSAYYNEKFKGRATITADKSTSTAYMELSSLRSEDTAVYYCARWGYGGVPFAYWGQGTLVTVSS
VL: DIVMTQSPDSLAVSLGERATINCKSSQSLLNDINQKNYLAWYQQKPGQSPKLLVYFASTGVSGVPDRFSGSGSGTDFTLTISSLQAEDVAVYYCQQYYSFPWTFGGGTKVEIK
notes: also called humanized antibody BGA-4348; 1st version of humanized antibody; not shown: Human kappa light chain constant region
For orientation: Kd means the concentration at which binding is half-saturated. The koff is a measure of how fast the partners let go of each other. Broadly, the kon is the rate constant with which the complex forms. Higher therefore signals fast association. By EC50 is commonly meant the midpoint of the concentration-response curve. Read a low EC50 as greater potency. For the molecule B1, in assay [1], the Kd stood at 0.33 nM, the off-rate constant (koff) was 1.04e-05 s⁻¹ and the on-rate (kon) worked out at 31500 M⁻¹ s⁻¹. The midpoint of the response in assay [2], the EC50, lay at 0.94 nM. In addition, in assay [3], the Kd was found to be 0.615 nM, the off-rate constant (koff) is 0.000227 s⁻¹ and the kon stood at 369000 M⁻¹ s⁻¹. The EC50 in assay [4] turned out to be 0.94 nM.

B2: BGA-5063 (antibody, human IgG1, V domains shown)
VH: QVQLVQSGAEVKKPGSSVKVSCKASGYTFTNYDINWVRQAPGQGLEWMGWIYPGDASAYYNEKFKGRATITADKSTSTAYMELSSLRSEDTAVYYCARWGYGGVPFAYWGQGTLVTVSS
VL: DIVMTQSPDSLAVSLGERATINCKSSQSLLNDINQKNYLAWYQQKPGQSPKLLVYFASTGVSGVPDRFSGSGSGTDFTLTISSLQAEDVAVYYCQQYYSFPWTFGGGTKVEIK
notes: Derived from BGA-4348 by framework and CDR mutations; also called humanized antibody BGA-5063; not shown: Human kappa light chain constant region
Regarding B2, the concentration for a half-maximal effect (EC50) in assay [2] worked out at 1.15 nM. In assay [3], this molecule came in with a dissociation constant Kd of 0.916 nM, a koff of 0.000269 s⁻¹ and a kon of 294000 M⁻¹ s⁻¹.

B3: Chimeric BGA-3295 (antibody, V domains shown)
VH: QIQVVQSGPELVKPGSLVKISCKASGYTFTNYDINWVKQRPGQGLEWIGWIYPGDGSAYYNEKFKGKATLTADKSSSTAYMQLSSLTSENSAVYFCARWGYGGVPFAYWGQGTLVTVSA
VL: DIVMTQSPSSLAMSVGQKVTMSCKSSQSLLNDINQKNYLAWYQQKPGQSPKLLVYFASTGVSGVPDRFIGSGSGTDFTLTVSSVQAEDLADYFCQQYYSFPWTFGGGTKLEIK
notes: Murine variable domains of BGA-3295, tested as the chimeric antibody; It was captured on an anti-human Fc surface and detected with anti-human IgG; also called Antibody BGA-3295
In assay [1], B3 displayed a dissociation constant Kd of 0.394 nM, a dissociation rate constant (koff) of 0.000284 s⁻¹ and a kon of 720000 M⁻¹ s⁻¹. Also, the EC50 in assay [4] is 1.1 nM.
